Test [1] addresses integrin αIIb cytoplasmic tail (αIIb CT, W988-E1008) (human) (UniProt P08514).
Test [2] shares this target. The test is described as follows: SPR. In general terms: SPR reads the build-up and loss of mass on a sensor chip optically.

Sequence of integrin αIIb cytoplasmic tail (αIIb CT, W988-E1008) (human) (P08514 1019-1039): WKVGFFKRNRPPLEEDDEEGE

In the case of “filamin A immunoglobulin repeat 21 (FLNa-Ig21) (from UniProt P21333 2236-2330) (domain or fragment)”, the inhibition by FLNa-Ig21 of the PAC1 binding of WT αIIbβ3 in CHO cells in test [1] was found to be 40%. Moreover, in test [2], the Kd (usually the equilibrium constant for the complex coming apart) stood at 229 µM.

Values taken from publication PMC4424056.
